Measured values taken from PMC10771490, “The structure of a tetrameric septin complex reveals a hydrophobic element essential for NC-interface integrity” (Communications Biology, 2024).

Columns and labels:
[1] = target: T1, Cdc3_(Q81-A410) (Saccharomyces cerevisiae, UniProt P32457 81-410); experiment: crystal structure; coexpressed tetrameric complex loaded with GTP before crystallization; sitting-drop vapor diffusion, 20% PEG 5000, 300 mM ammoniumsulfate, 100 mM Bis-Tris pH 6.5, 20 °C; 3.24 Å, space group C 1 2 1, a tetramer in the asymmetric unit; conditions: both partners purified
T1 construct: Cdc3, septin of Saccharomyces cerevisiae, residues Q81-A410 (extensions removed); source: E. coli BL21DE3, coexpressed with the other subunits, purified (HisTrap IMAC, anion exchange, SEC)
T1 sequence (looked up): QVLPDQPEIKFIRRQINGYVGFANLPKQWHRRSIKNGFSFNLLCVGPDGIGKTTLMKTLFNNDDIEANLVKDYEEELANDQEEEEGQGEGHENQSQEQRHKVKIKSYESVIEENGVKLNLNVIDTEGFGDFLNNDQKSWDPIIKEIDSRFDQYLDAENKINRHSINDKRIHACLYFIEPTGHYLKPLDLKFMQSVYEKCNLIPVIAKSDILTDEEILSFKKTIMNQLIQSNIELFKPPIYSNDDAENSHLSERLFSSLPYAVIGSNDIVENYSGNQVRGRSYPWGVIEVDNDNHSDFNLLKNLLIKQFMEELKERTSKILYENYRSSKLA

[2] = target: the molecule itself; experiment: SEC; analytical SEC of yeast septin complexes purified by IMAC and IEX; Superose 6, 25 mM Tris pH 8.0, 300 mM NaCl; elution compared with tetramer and octamer references
[3] = target: T1, Cdc3_(Q81-A410); experiment: as above; conditions: both partners purified
[4] = target: the molecule itself; experiment: cross-linking; engineered cysteine pairs across the Cdc10-Cdc10 NC-interface; complexes expressed in E. coli T7-SHuffle Express, purified by IMAC in non-reducing buffers, SDS-PAGE with and without β-Mercaptoethanol, Western blot against the S-tag on Cdc10
[5] = target: T2, Shs1_(G21-S339) (Saccharomyces cerevisiae, UniProt Q07657 21-339); experiment: crystal structure; coexpressed tetrameric complex loaded with GTP before crystallization; sitting-drop vapor diffusion, 20% PEG 5000, 300 mM ammoniumsulfate, 100 mM Bis-Tris pH 6.5, 20 °C; 3.24 Å, space group C 1 2 1, a tetramer in the asymmetric unit; conditions: both partners purified
T2 construct: Shs1, septin of Saccharomyces cerevisiae, residues G21-S339 (unstructured extensions removed); The complex was purified on a HisTrap column; source: E. coli BL21DE3, coexpressed with the other subunits, purified (HisTrap IMAC, anion exchange, SEC)
T2 sequence (looked up): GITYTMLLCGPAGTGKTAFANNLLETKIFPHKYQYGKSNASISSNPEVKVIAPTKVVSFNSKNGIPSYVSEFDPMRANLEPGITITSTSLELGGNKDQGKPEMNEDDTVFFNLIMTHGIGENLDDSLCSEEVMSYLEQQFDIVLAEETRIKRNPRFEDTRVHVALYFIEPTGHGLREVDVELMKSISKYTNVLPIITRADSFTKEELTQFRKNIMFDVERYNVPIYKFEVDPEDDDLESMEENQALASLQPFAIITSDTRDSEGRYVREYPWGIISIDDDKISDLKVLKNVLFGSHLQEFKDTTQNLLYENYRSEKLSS

B1: Cdc10_(G30-R322) (domain or fragment, Saccharomyces cerevisiae, UniProt P25342 30-322, looked up)
chain: GFQFNIMVVGQSGLGKSTLINTLFASHLIDSATGDDISALPVTKTTEMKISTHTLVEDRVRLNINVIDTPGFGDFIDNSKAWEPIVKYIKEQHSQYLRKELTAQRERFITDTRVHAILYFLQPNGKELSRLDVEALKRLTEIANVIPVIGKSDTLTLDERTEFRELIQNEFEKYNFKIYPYDSEELTDEELELNRSVRSIIPFAVVGSENEIEINGETFRGRKTRWSAINVEDINQCDFVYLREFLIRTHLQDLIETTSYIHYEGFRARQLIALKENANSRSSAHMSSNAIQR
notes: Cdc10, septin of Saccharomyces cerevisiae, residues G30-R322 (lacks the α0-helix); also called Cdc10 lacking the α0-helix; Cdc10 of the truncated tetramer; source: E. coli BL21DE3, coexpressed with the other subunits, purified (HisTrap IMAC, anion exchange, SEC)
B1: binds [1].

B2: Cdc10_(L27A) (natural protein, Saccharomyces cerevisiae, UniProt P25342 1-322, looked up)
chain: MDPLSSVQPASYVGFDTITNQIEHRLAKKGFQFNIMVVGQSGLGKSTLINTLFASHLIDSATGDDISALPVTKTTEMKISTHTLVEDRVRLNINVIDTPGFGDFIDNSKAWEPIVKYIKEQHSQYLRKELTAQRERFITDTRVHAILYFLQPNGKELSRLDVEALKRLTEIANVIPVIGKSDTLTLDERTEFRELIQNEFEKYNFKIYPYDSEELTDEELELNRSVRSIIPFAVVGSENEIEINGETFRGRKTRWSAINVEDINQCDFVYLREFLIRTHLQDLIETTSYIHYEGFRARQLIALKENANSRSSAHMSSNAIQR
notes: Cdc10, septin of Saccharomyces cerevisiae, hydrophobic crest mutant (position 15 of the motif); Compared with the wildtype octamer; source: E. coli BL21DE3, co-expressed as septin complex, purified (IMAC, IEX)
B2: binds [2].

B3: Cdc10 L26A (natural protein, Saccharomyces cerevisiae, UniProt P25342 1-322, looked up)
chain: MDPLSSVQPASYVGFDTITNQIEHRALKKGFQFNIMVVGQSGLGKSTLINTLFASHLIDSATGDDISALPVTKTTEMKISTHTLVEDRVRLNINVIDTPGFGDFIDNSKAWEPIVKYIKEQHSQYLRKELTAQRERFITDTRVHAILYFLQPNGKELSRLDVEALKRLTEIANVIPVIGKSDTLTLDERTEFRELIQNEFEKYNFKIYPYDSEELTDEELELNRSVRSIIPFAVVGSENEIEINGETFRGRKTRWSAINVEDINQCDFVYLREFLIRTHLQDLIETTSYIHYEGFRARQLIALKENANSRSSAHMSSNAIQR
notes: Cdc10, septin of Saccharomyces cerevisiae, mutant of the non-conserved position 14 of the hydrophobic crest motif; Compared with the wildtype octamer; source: E. coli BL21DE3, co-expressed as septin complex, purified (IMAC, IEX)
B3: binds [2].

B4: Cdc10_(M1-R322) (natural protein, Saccharomyces cerevisiae, UniProt P25342 1-322, looked up)
chain: MDPLSSVQPASYVGFDTITNQIEHRLLKKGFQFNIMVVGQSGLGKSTLINTLFASHLIDSATGDDISALPVTKTTEMKISTHTLVEDRVRLNINVIDTPGFGDFIDNSKAWEPIVKYIKEQHSQYLRKELTAQRERFITDTRVHAILYFLQPNGKELSRLDVEALKRLTEIANVIPVIGKSDTLTLDERTEFRELIQNEFEKYNFKIYPYDSEELTDEELELNRSVRSIIPFAVVGSENEIEINGETFRGRKTRWSAINVEDINQCDFVYLREFLIRTHLQDLIETTSYIHYEGFRARQLIALKENANSRSSAHMSSNAIQR
notes: Cdc10, septin of Saccharomyces cerevisiae, residues M1-R322; kept apart from m6 because it stood with truncated partner subunits; also called Cdc10 with the α0-helix added, in the otherwise truncated complex; source: E. coli BL21DE3, coexpressed with Shs1_(G21-S339), Cdc12_(M1-G314) and Cdc3_(Q81-A410), purified (IMAC, IEX)
B4: binds [3]; binds [2].

B5: Cdc10 T19C/E23C (disulfide bridge mutant) (natural protein, Saccharomyces cerevisiae, UniProt P25342 1-322, looked up)
chain: MDPLSSVQPASYVGFDTICNQICHRLLKKGFQFNIMVVGQSGLGKSTLINTLFASHLIDSATGDDISALPVTKTTEMKISTHTLVEDRVRLNINVIDTPGFGDFIDNSKAWEPIVKYIKEQHSQYLRKELTAQRERFITDTRVHAILYFLQPNGKELSRLDVEALKRLTEIANVIPVIGKSDTLTLDERTEFRELIQNEFEKYNFKIYPYDSEELTDEELELNRSVRSIIPFAVVGSENEIEINGETFRGRKTRWSAINVEDINQCDFVYLREFLIRTHLQDLIETTSYIHYEGFRARQLIALKENANSRSSAHMSSNAIQR
notes: Cdc10, septin of Saccharomyces cerevisiae, native, non-truncated, with two cysteines for a disulfide between the two α0-helices; also called T19C and E23C; source: E. coli T7-SHuffle Express, co-expressed with the other full-length subunits, purified (IMAC, non-reducing buffers)
B5: binds [4].

B6: Cdc10, native, non-truncated (wild type) (natural protein, Saccharomyces cerevisiae, UniProt P25342 1-322, looked up)
chain: MDPLSSVQPASYVGFDTITNQIEHRLLKKGFQFNIMVVGQSGLGKSTLINTLFASHLIDSATGDDISALPVTKTTEMKISTHTLVEDRVRLNINVIDTPGFGDFIDNSKAWEPIVKYIKEQHSQYLRKELTAQRERFITDTRVHAILYFLQPNGKELSRLDVEALKRLTEIANVIPVIGKSDTLTLDERTEFRELIQNEFEKYNFKIYPYDSEELTDEELELNRSVRSIIPFAVVGSENEIEINGETFRGRKTRWSAINVEDINQCDFVYLREFLIRTHLQDLIETTSYIHYEGFRARQLIALKENANSRSSAHMSSNAIQR
notes: Cdc10, septin of Saccharomyces cerevisiae, native, non-truncated; An S-tag is named on Cdc10 only for the Western blots of the disulfide mutants; also called Cdc10 of the untruncated octamer; source: E. coli BL21DE3, co-expressed with the other full-length subunits, purified (IMAC, IEX)
B6: binds [2].

B7: Cdc10 L27A in the disulfide bridge mutant A132C/L300C (natural protein, Saccharomyces cerevisiae, UniProt P25342 1-322, looked up)
chain: MDPLSSVQPASYVGFDTITNQIEHRLAKKGFQFNIMVVGQSGLGKSTLINTLFASHLIDSATGDDISALPVTKTTEMKISTHTLVEDRVRLNINVIDTPGFGDFIDNSKAWEPIVKYIKEQHSQYLRKELTCQRERFITDTRVHAILYFLQPNGKELSRLDVEALKRLTEIANVIPVIGKSDTLTLDERTEFRELIQNEFEKYNFKIYPYDSEELTDEELELNRSVRSIIPFAVVGSENEIEINGETFRGRKTRWSAINVEDINQCDFVYLREFLIRTHLQDLIETTSYIHYEGFRARQCIALKENANSRSSAHMSSNAIQR
notes: Cdc10, septin of Saccharomyces cerevisiae, disulfide bridge mutant A132C/L300C with L27A; also called L27A (disulfide mutant); source: E. coli T7-SHuffle Express, co-expressed with the other full-length subunits, purified (IMAC, non-reducing buffers)
B7: binds [4].

B8: Cdc10 L26A in the disulfide bridge mutant A132C/L300C (natural protein, Saccharomyces cerevisiae, UniProt P25342 1-322, looked up)
chain: MDPLSSVQPASYVGFDTITNQIEHRALKKGFQFNIMVVGQSGLGKSTLINTLFASHLIDSATGDDISALPVTKTTEMKISTHTLVEDRVRLNINVIDTPGFGDFIDNSKAWEPIVKYIKEQHSQYLRKELTCQRERFITDTRVHAILYFLQPNGKELSRLDVEALKRLTEIANVIPVIGKSDTLTLDERTEFRELIQNEFEKYNFKIYPYDSEELTDEELELNRSVRSIIPFAVVGSENEIEINGETFRGRKTRWSAINVEDINQCDFVYLREFLIRTHLQDLIETTSYIHYEGFRARQCIALKENANSRSSAHMSSNAIQR
notes: Cdc10, septin of Saccharomyces cerevisiae, disulfide bridge mutant A132C/L300C with L26A; also called L26A (disulfide mutant); source: E. coli T7-SHuffle Express, co-expressed with the other full-length subunits, purified (IMAC, non-reducing buffers)
B8: binds [4].

B9: Cdc10 Q21C/Q281C (disulfide bridge mutant) (natural protein, Saccharomyces cerevisiae, UniProt P25342 1-322, looked up)
chain: MDPLSSVQPASYVGFDTITNCIEHRLLKKGFQFNIMVVGQSGLGKSTLINTLFASHLIDSATGDDISALPVTKTTEMKISTHTLVEDRVRLNINVIDTPGFGDFIDNSKAWEPIVKYIKEQHSQYLRKELTAQRERFITDTRVHAILYFLQPNGKELSRLDVEALKRLTEIANVIPVIGKSDTLTLDERTEFRELIQNEFEKYNFKIYPYDSEELTDEELELNRSVRSIIPFAVVGSENEIEINGETFRGRKTRWSAINVEDINQCDFVYLREFLIRTHLCDLIETTSYIHYEGFRARQLIALKENANSRSSAHMSSNAIQR
notes: source: E. coli T7-SHuffle Express, co-expressed with the other full-length subunits, purified (IMAC, non-reducing buffers)
B9: binds [4].

B10: Cdc10 A132C/L300C (disulfide bridge mutant) (natural protein, Saccharomyces cerevisiae, UniProt P25342 1-322, looked up)
chain: MDPLSSVQPASYVGFDTITNQIEHRLLKKGFQFNIMVVGQSGLGKSTLINTLFASHLIDSATGDDISALPVTKTTEMKISTHTLVEDRVRLNINVIDTPGFGDFIDNSKAWEPIVKYIKEQHSQYLRKELTCQRERFITDTRVHAILYFLQPNGKELSRLDVEALKRLTEIANVIPVIGKSDTLTLDERTEFRELIQNEFEKYNFKIYPYDSEELTDEELELNRSVRSIIPFAVVGSENEIEINGETFRGRKTRWSAINVEDINQCDFVYLREFLIRTHLQDLIETTSYIHYEGFRARQCIALKENANSRSSAHMSSNAIQR
notes: also called Cdc10^A_(A132)-Cdc10^B_(L300); source: E. coli T7-SHuffle Express, co-expressed with the other full-length subunits, purified (IMAC, non-reducing buffers)
B10: binds [4].

B11: Cdc12_(M1-G314) (domain or fragment, Saccharomyces cerevisiae, UniProt P32468 1-314, looked up)
chain: MSAATATAAPVPPPVGISNLPNQRYKIVNEEGGTFTVMLCGESGLGKTTFINTLFQTVLKRADGQQHRQEPIRKTVEIDITRALLEEKHFELRVNVIDTPGFGDNVNNNKAWQPLVDFIDDQHDSYMRQEQQPYRTKKFDLRVHAVLYFIRPTGHGLKPIDIETMKRLSTRANLIPVIAKADTLTAQELQQFKSRIRQVIEAQEIRIFTPPLDADSKEDAKSGSNPDSAAVEHARQLIEAMPFAIVGSEKKFDNGQGTQVVARKYPWGLVEIENDSHCDFRKLRALLLRTYLLDLISTTQEMHYETYRRLRLEG
notes: Cdc12, septin of Saccharomyces cerevisiae, residues M1-G314 (C-terminal extension removed); source: E. coli BL21DE3, coexpressed with the other subunits, purified (HisTrap IMAC, anion exchange, SEC)
B11: binds [5]; binds [1].
